Here are results for four substances from paper PMC9989821.

Usually stoichiometry N stands for the number of molecules, sites or subunits per partner or assembly.

What all share (assay): crystal structure; VP1 pentamers (His-tag cleaved) at 3-4 mg/mL, hanging drop vapor diffusion at 20°C, 10-18% PEG 3.350, 0.1 M HEPES pH 7.5, 0.1-0.3 M LiCl; self-association of VP1 into a pentamer
Experiment [1] has as its target BK polyomavirus VP1 mutant VQQ, A72V E73Q E82Q (VP1 pentamer, residues 30-300) (BK polyomavirus) (UniProt P03088).
Experiment [2] concerns the target BK polyomavirus VP1 mutant E73Q (VP1 pentamer, residues 30-300) (BK polyomavirus) (UniProt P03088).
The target of experiment [3] is BK polyomavirus VP1 mutant N-Q, K69N E82Q (VP1 pentamer, residues 30-300) (BK polyomavirus) (UniProt P03088).
Experiment [4] deals with BK polyomavirus VP1 mutant E73A (VP1 pentamer, residues 30-300) (BK polyomavirus) (UniProt P03088).

With “BK polyomavirus VP1 mutant VQQ, A72V E73Q E82Q (VP1 pentamer, residues 30-300) (from UniProt P03088 30-300) (domain or fragment)”, in experiment [1], the stoichiometry N was 5.
“BK polyomavirus VP1 mutant E73Q (VP1 pentamer, residues 30-300) (from UniProt P03088 30-300) (domain or fragment)”: the stoichiometry N in experiment [2] turned out to be 5.
In experiment [3], “BK polyomavirus VP1 mutant N-Q, K69N E82Q (VP1 pentamer, residues 30-300) (from UniProt P03088 30-300) (domain or fragment)” showed a stoichiometry N of 5.
The substance “BK polyomavirus VP1 mutant E73A (VP1 pentamer, residues 30-300) (from UniProt P03088 30-300) (domain or fragment)” registered a stoichiometry N in experiment [4] of 5.
